Molecular target: T1, pro-caspase-8 (Homo sapiens, UniProt P62942+Q14790)
T1 construct: in vitro translated, ^35S-labeled Fkp3-Casp8(206); made in house; host or cells: cell-free in vitro transcription/translation, TNT Reticulocyte Lysate System (Promega)
Assay: Cell-free processing of pro-caspase-8 (in vitro translated, 35S-labeled, SDS-PAGE autoradiography)
Type: biochemical
Details: AP1510 100 nM; FK506 100 nM; Z-DEVD 10 μM
Procedure: In vitro transcription and translation of the indicated constructs with ^35S-labeled methionine were carried out with the TNT Reticulocyte Lysate System (Promega; Madison Wis.). The reaction mixture contained 1 μl of the in vitro translation product and the indicated drugs dissolved in 3 μl of CED3 reaction buffer (Xue et al., Genes Devel. 10:1073-1083 (1996), which is incorporated herein by reference). Final drug concentrations of 100 nM of AP1510 or FK506 and 10 μM of Z-Asp-Glu-Val-Asp(SEQ ID NO:1)(Z-DEVD; Enzyme System Products; Calif.) were used. The reaction mixture was incubated in 30° C. for 4 hr, then the reaction stopped by the addition of SDS sample buffer. Reaction products were visualized by SDS-PAGE and autoradiography.

T1 sequence (P62942+Q14790 fused): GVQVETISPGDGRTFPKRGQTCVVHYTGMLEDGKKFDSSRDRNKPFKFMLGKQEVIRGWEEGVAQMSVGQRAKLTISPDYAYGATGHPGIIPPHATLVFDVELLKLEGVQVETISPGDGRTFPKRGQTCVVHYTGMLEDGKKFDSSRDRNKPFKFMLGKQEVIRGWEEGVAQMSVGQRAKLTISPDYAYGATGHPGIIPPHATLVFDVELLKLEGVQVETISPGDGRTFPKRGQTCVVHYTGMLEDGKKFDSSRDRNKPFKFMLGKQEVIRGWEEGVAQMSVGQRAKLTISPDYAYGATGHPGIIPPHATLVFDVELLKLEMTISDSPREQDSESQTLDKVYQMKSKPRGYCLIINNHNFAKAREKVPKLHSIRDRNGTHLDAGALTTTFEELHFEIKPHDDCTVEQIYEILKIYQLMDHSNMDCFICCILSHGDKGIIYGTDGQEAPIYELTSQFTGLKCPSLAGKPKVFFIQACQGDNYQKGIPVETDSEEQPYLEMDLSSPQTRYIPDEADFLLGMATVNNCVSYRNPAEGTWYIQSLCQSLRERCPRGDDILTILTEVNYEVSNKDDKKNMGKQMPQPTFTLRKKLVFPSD

effect on AP1510-initiated cell-free processing of Fkp3-Casp8(206): inhibited
Substance: Z-Asp-Glu-Val-Asp (ZDEVD; N-terminal benzyloxycarbonyl (Z); enzyme used in cell-free processing of Pro-Caspase-8) [z-DEVD]

— US6916917B1, “Chimeric pro-caspases and methods of using same” (California Institute of Technology, priority 1998, dated 2005)
